Reference: article PMC2172667 (The Journal of Cell Biology, 2003)

Target: the molecule itself
Assay: AUC + SEC

B1: his-EPLIN-α (natural protein)
chain: MENCLGESRHEVEKSEISENTDASGKIEKYNVPLNRLKMMFEKGEPTQTKILRAQSRSASGRKISENSYSLDDLEIGPGQLSSSTFDSEKNESRRNLELPRLSETSIKDRMAKYQAAVSKQSSSTNYTNELKASGGEIKIHKMEQKENVPPGPEVCITHQEGEKISANENSLAVRSTPAEDDSRDSQVKSEVQQPVHPKPLSPDSRASSLSESSPPKAMKKFQAPARETCVECQKTVYPMERLLANQQVFHISCFRCSYCNNKLSLGTYASLHGRIYCKPHFNQLFKSKGNYDEGFGHRPHKDLWASKNENEEILERPAQLANARETPHSPGVEDAPIAKVGVLAASMEAKASSQQEKEDKPAETKKLRIAWPPPTELGSSGSALEEGIKMSKPKWPPEDEISKPEVPEDVDLDLKKLRRSSSLKERSRPFTVAASFQSTSVKSPKTVSPPIRKGWSMSEQSEESVGGRVAERKQVENAKASKKNGNVGKTTWQNKESKGETGKRSKEGHSLEMENENLVENGADSDEDDNSFLKQQSPQEPKSLNWSSFVDNTFAEEFTTQNQKSQDVELWEGEVVKELSVEEQIKRNRYYDEDEDEE
  stoichiometry N: ~8 polypeptides
